Columns and labels:
[1] = Biotin-PGE2 ELISA (PGE2-biotinamide binding to captured IgG)
Description: Enzyme linked immunosorbent assays to screen for antibodies that bind prostaglandin E2 were performed according to at least one of the two following methods.
ELISA plates (Costar 3369, Corning, N.Y.) were coated with 50 μl of anti-host Fc IgG (Sigma, St. Louis, Mo.) at 2 μg/ml in PBS (Invitrogen Carlsbad, Calif.). Following an overnight incubation at 4° C., washed with PBS and the plate was blocked with 200 μl Superblock (Pierce #37535, Rockford, Ill.). The IgG containing samples were diluted to 1 μg/ml in Assay Buffer (10% Superblock in PBS containing 0.05% Surfactamps (Pierce #37535, Rockford, Ill.) and 50 μl/well added to each well and incubated for 1 hour at room temperature. Plates were washed four times with Tween-Tris Buffered Solution (TTBS). […] The titration curve samples were added to each IgG sample at 50 μl/well and incubated for 1 hour at room temperature. The plates were washed as previously described and 50 μl of 1:5000 dilution of streptavidin polyhrp40 (Fitzgerald Industries, Concord, Mass.) in Assay Buffer was added to each well and incubated for 45 minutes at room temperature. A final wash step was performed and the plates were developed using a single step TMB system (Sigma #T8665, St. Louis, Mo.) and 100 μl/well 2N H2SO4. Plates were read at 450 nm on a Molecular Devices Spectramax plate reader (Sunnyvale, Calif.). EC50 was determined using GraphPad Prism 5 (GraphPad Software, La Jolla, Calif.).

^3H-PGE2 ELISA (binding) = assay: ^3H-PGE2 ELISA (binding)
Description: Alternatively, prostaglandin binding was determined using a ^3H-PGE2 ELISA. Plates were coated at 50 μL/well with 5 μg/ml of goat anti-human IgG (Fc) (Thermo Scientific # 31170, Hudson, N.H.) or goat anti-mouse IgG (Fc) (Thermo Scientific # 31125, Hudson, N.H.) in PBS and incubated overnight at 4° C. The following day, plates were flicked and blotted dry. Plates were blocked with 200 μL/well of Superblock (Thermo Scientific # 37515, Hudson, N.H.) for 1 hour at room temperature. Plates were flicked and blotted dry. Monoclonal antibodies were diluted to 0.04 μg/ml in phosphate buffer solution with Tween 20 (PBST) (Abbott Bioresearch Center, Worcester, Mass.) and 10% Superblock and 50 μL of each antibody was added to each well of the pre-blocked ELISA plate at 2 ng/well and incubated for 1 hour at room temperature. Wells were washed 3 times with PBS+0.1% Tween-20. A serial 3-fold titration of ^3H-PGE2 (Perkin Elmer # NET-428, Waltham, Mass.) was prepared in PBST/10% Superblock. Fifty microliters of the ^3H-PGE2 solution was added to each well of the plate and incubated for 1 hour at room temperature. […] Plates were read using a TopCount reader (Perkin Elmer, Waltham, Mass.) with a 5 minute count delay. An EC50 number was determined using GraphPad Prism 5 (GraphPad Software, La Jolla, Calif.).

B1: 2B5-8.0: recombinant anti-PGE2 antibody from solved 2B5 sequence; VH SEQ ID NO 42, VL SEQ ID NO 43 (antibody, V domains shown)
VH: QVQLQQSGPELVRPGSSVKISCKASGYTFTKYWLGWVKQRPGHGLEWIGDIYPGYDYTHYNEKFKDKATLTVDTSSSTAYMQLSSLTSEDSAIYYCARSDGSSTYWGQGTLVTVSA
VL: DVLMTQTPLSLPVSLGDQASISCTSSQNIVHSNGNTYLEWYLQRPGQSPKLLIYKVSNRFSGVPDRFSGSGSGTVFTLKISRVEAEDLGVYYCFQVSHVPYTFGGGTKLEIKR
In the case of B1, the EC50 [1] is reported as 1.03 nM, the “ability to bind PGE2 in ELISA” value [1] is reported as “potently bound to PGE2” and the EC50 (^3H-PGE2 ELISA (binding)) is reported as 0.253 nM.

Reference: US8624002B2, “Prostaglandin E2 binding proteins and uses thereof” (AbbVie, Inc., priority 2008, dated 2014)
